The values that follow are results of earlier work, collected in article PMC9206673.

Data set [1] deals with neurotransmitter receptor peptide.
Data set [2] concerns the target gephyrin-binding peptide.

Gephyrin, sequence (Q8BUV3 whole entry): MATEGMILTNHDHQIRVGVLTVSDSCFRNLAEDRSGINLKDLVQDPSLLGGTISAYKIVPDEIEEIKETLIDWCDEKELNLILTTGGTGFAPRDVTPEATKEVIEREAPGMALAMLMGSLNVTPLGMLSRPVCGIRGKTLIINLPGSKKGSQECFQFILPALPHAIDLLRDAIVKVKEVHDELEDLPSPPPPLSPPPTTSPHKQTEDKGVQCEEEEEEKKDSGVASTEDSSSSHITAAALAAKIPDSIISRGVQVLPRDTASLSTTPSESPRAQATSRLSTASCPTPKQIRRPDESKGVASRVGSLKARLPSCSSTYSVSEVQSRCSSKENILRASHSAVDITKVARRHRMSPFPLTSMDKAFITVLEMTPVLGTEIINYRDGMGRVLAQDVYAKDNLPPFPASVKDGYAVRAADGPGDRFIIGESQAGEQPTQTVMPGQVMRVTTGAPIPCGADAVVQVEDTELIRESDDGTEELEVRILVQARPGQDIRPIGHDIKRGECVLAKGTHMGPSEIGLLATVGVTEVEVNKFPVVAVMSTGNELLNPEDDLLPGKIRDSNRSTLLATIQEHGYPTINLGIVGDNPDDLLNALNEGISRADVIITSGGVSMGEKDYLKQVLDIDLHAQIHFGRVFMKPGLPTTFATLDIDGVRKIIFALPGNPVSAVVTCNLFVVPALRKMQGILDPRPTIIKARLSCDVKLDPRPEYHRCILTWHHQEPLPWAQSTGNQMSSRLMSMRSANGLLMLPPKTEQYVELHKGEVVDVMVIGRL

For Gephyrin (from UniProt Q8BUV3), the Kd (in general, the equilibrium constant for the complex coming apart) was 0.14 µM in data set [1] and 0.00014 µM in data set [2].
